Results reported in patent US11844813 (ST ANNA KINDERKREBSFORSCHUNG, dated 2023).
Where a chain is given by its changes, count along the chain named.

Tests used:
[1] = molecular target: T1, Human His-tagged RBP4 (residues 19-201), soluble (human, UniProt P02753 19-201); assay: yeast surface display, flow cytometry: soluble His-tagged RBP4 titrated on yeast displaying the binder, anti-penta-His detection, with 5 µM A1120; mean of three
Excerpt: (§1) "a" can be part of a soluble protein (secreted or exogenously added) or of a transmembrane construct and "c" can be part of a signal transducing construct (shown in A and B). Of course, "a" and "c" can be integrated in the constructs vice versa (not shown). There are many more possible arrangements (not shown). […] RBP4-binding was detected with an anti-penta-His antibody and subsequently analyzed by flow cytometry.

[2] = molecular target: T1, Human His-tagged RBP4 (residues …); assay: yeast display, + A1120; mean ± S.D., n=3
[3] = molecular target: T1, Human His-tagged RBP4 (residues …); assay: yeast surface display, flow cytometry: soluble His-tagged RBP4 titrated on yeast displaying the binder, anti-penta-His detection, with 5 µM A1120
Excerpt: as §1

[4] = molecular target: T1, Human His-tagged RBP4 (residues …); assay: ITC, -A1120; mean ± S.D., n=4
Method: (§2) The samples were centrifuged (17000 g, 10 min, 20° C.) and dialysed against the same buffer (PBS). RBP4 protein solution was applied to the sample cell and the respective RBP4 binding interaction partners were titrated with varying intervals. Different concentrations both for RBP4 and RBP4 binding interaction partners were used. […] Data analysis was performed with the MicroCal PEAQ-ITC analysis software and the resulting data were fitted to a one-set-of-sites binding model. […] The integrated data were fitted to one-set-of-sites binding model to calculate the K_D values in FIG. 18.

[5] = molecular target: T1, Human His-tagged RBP4 (residues …); assay: ITC, + A1120; mean ± S.D., n=4
Method: as §2

[6] = molecular target: T1, Human His-tagged RBP4 (residues …); assay: ITC; ratio of the KD without to the KD with A1120
Method: as §2

[7] = molecular target: T1, Human His-tagged RBP4 (residues …); assay: yeast surface display, flow cytometry: soluble His-tagged RBP4 titrated on yeast displaying the binder, anti-penta-His detection, with 5 µM A1120; mean of three; remark: listed apart in the source
Method: All small molecules were present at a concentration of 5 µM. RBP4-binding was detected with an anti-penta-His antibody and subsequently analyzed by flow cytometry.

[8] = molecular target: T1, Human His-tagged RBP4 (residues …); assay: SPR, -A1120; mean ± S.D., n=4
Method: (§3) The antigen (RBP4) was coated onto a CM5 chip (GE Healthcare) and incubated with various concentrations of lipocalin-fold binding interaction partner solution in HBS-EP (GE Healthcare), followed by a dissociation phase in HBS-EP. […] Finally, K_d values (dissociation constants) were obtained by steady-state analysis.

[9] = molecular target: T1, Human His-tagged RBP4 (residues …); assay: SPR, + A1120; mean ± S.D., n=4
Method: as §3

[10] = molecular target: T1, Human His-tagged RBP4 (residues …); assay: SPR (Biacore T200), single-cycle kinetics, RBP4 immobilised on a CM5 chip, RS3 injected at 6.25-100 nM, with 5 µM A1120; steady-state analysis; one representative experiment of four
Method: (§4) Applied concentrations of RS3 are indicated in the plots. […] Figure 17B: Figure 17C:
as §3

[11] = molecular target: T1, Human His-tagged RBP4 (residues …); assay: SPR (Biacore T200), single-cycle kinetics, RBP4 immobilised on a CM5 chip, RS3 injected at 937.5-15000 nM, without A1120; steady-state analysis; one representative experiment of four
Method: as §4, §3

B1: RF3, FN3-based lipocalin-fold binding interaction partner, displayed on the surface of yeast (designed binder)
chain: VSDVPRDLEVVAATPTSLLISWYYPNASHAGYYRITYGETGGNSPVQEFTVPFSIRYTIATISGLKPGVDYTITVYAVTASCQYCSYPISINYRTEIDKPSQ
notes: not shown: Yeast-display carrier of the pCTCON2 construct (Aga2p anchor, HA tag, linker, c-myc tag)
[1]
  Kd: 67 nM

B2: RF2, FN3-based lipocalin-fold binding interaction partner, displayed on the surface of yeast (designed binder)
chain: VSDVPRDLEVVAATPTSLLISWYYPNASHAGYYRITYGETGGNSPVQEFTVPFSIRYTIATISGLKPGVDYTITVYAVTDYAYYYRLSEPISINYRTEIDKPSQ
notes: as for B1
[2]
  Kd: 65 nM
[3]
  EC50 (read off the curve): ~40 nM
[1]
  Kd: 41.8 nM

B3: RF2, FN3-based RBP4 binding interaction partner, soluble protein (designed binder)
chain: B2 chain
notes: Expressed in E. coli as His6-SUMO fusion; Monomeric by SEC
[4]
  Kd: 4380 nM
[5]
  Kd: 279 nM
[6]
  KD,-A1120 / KD,+A1120: 16

B4: RF1, FN3-based lipocalin-fold binding interaction partner, displayed on the surface of yeast (designed binder)
chain: B2 chain with I35V, Y71H, L87S
notes: as for B1
[1]
  Kd: 169 nM
[7]
  EC50 (read off the curve): ~6 nM

B5: RS2, rcSso7d-based lipocalin-fold binding interaction partner, displayed on the surface of yeast (designed binder)
chain: ATVKLTYQGEEKQVDISKIKRVARYGQGIYFDYGEGGGAWGYGSVSEKDAPKELLQMLEKQ
notes: not shown: Yeast display carrier of pCTCON2 (Aga2p, HA tag, linker, C-terminal c-myc tag)
[3]
  EC50 (read off the curve): ~3 nM
[1]
  Kd: 2.9 nM

B6: RS4, rcSso7d-based lipocalin-fold binding interaction partner, displayed on the surface of yeast (designed binder)
chain: B5 chain with V3A, L5F, D32S, G34D, W40Y
notes: as for B5
[1]
  Kd: 47.6 nM

B7: RS3, rcSso7d-based lipocalin-fold binding interaction partner, displayed on the surface of yeast (designed binder)
chain: B5 chain with G28N, D32S, G34D, W40Y, G41D, S44A
notes: as for B5
[2]
  Kd: 13 nM
[3]
  EC50 (read off the curve): ~10 nM
[1]
  Kd: 11.5 nM
[7]
  EC50 (read off the curve): ~20 nM

B8: RS1, rcSso7d-based lipocalin-fold binding interaction partner, displayed on the surface of yeast (designed binder)
chain: ATVKFTYQGEEEQVDISKIKKVARYGQNIYFSYDEGGGAWDYGGVSEKDAPKELLQMLEKQ
notes: as for B5
[3]
  EC50 (read off the curve): 1 to 2 nM
[1]
  Kd: 1.5 nM

B9: RS5, rcSso7d-based RBP4 binding interaction partner, soluble protein (designed binder)
chain: B5 chain with L5F, K48E
notes: as for B3
[4]
  Kd: 3780 nM
[8]
  Kd: 11000 nM
[5]
  Kd: 17 nM
[9]
  Kd: 38 nM
[6]
  KD,-A1120 / KD,+A1120: 222

B10: RS5, rcSso7d-based lipocalin-fold binding interaction partner, displayed on the surface of yeast (designed binder)
chain: B5 chain with L5F, K48E
notes: as for B1
[2]
  Kd: 80 nM
[1]
  Kd: 69.5 nM

B11: RS3, rcSso7d-based RBP4 binding interaction partner, soluble protein (designed binder)
chain: B8 chain with F5L, E12K, K21R, W40Y, G44A
notes: as for B3
[4]
  Kd: 2690 nM
[8]
  Kd: 4950 nM
[5]
  Kd: 7 nM
[9]
  Kd: 9 nM
[6]
  KD,-A1120 / KD,+A1120: 384
[10]
  Kd: 11 nM
[11]
  Kd: 6130 nM
